These substances were tested against HLA-A*02:01 (Homo sapiens, UniProt P04439, D140Y/D185E/D98H/E176V/E277Q/G131W/G231S/I119V/I121R/I166T/I218V/L300P/L318F/N151K/N90K/P208A/P217A/Q86G/Q94H/R138H/R169H/T345S) (assay: MHC binding assay: UV-ligand exchange with beta2m ELISA (peptide exchange yield)). Settings: binding to HLA-A*02:01.
In short: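 Values give exchange yield, measured by β2m ELISA: 100-fold-diluted monomers bound to streptavidin plates (1h, 37° C), probed with HRP anti-β2m at 2 ug/ml and read at 450 nm after TMB. Monomers came from UV-triggered cleavage of a photolabile peptide and exchange for the test peptide.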

Substance	Peptide exchange (MHC class I binding score, peptide exchange yield)
571 (LLLTTIPQI; listed as Homo sapiens) [compound 571]	“+++” (≥50 = +++)
564 (TVTNAVVTV; listed as Homo sapiens) [compound 564]	“+++” (≥50 = +++)
18 (YLVAKLVEV; listed as Homo sapiens) [compound 18]	“++” (≥20% = ++)
41 (SLMPHIPGL; listed as Homo sapiens) [compound 41]	“+++” (≥50 = +++)
279 (ALWGGTQPLL; listed as Homo sapiens) [compound 279]	“++” (≥20% = ++)
490 (FLLQHVQEL; listed as Homo sapiens) [compound 490]	“+++” (≥50 = +++)
1 (SLMEPPAVLLL; listed as Homo sapiens) [compound 1]	“+++” (≥50 = +++)
570 (ALANQIPTV; listed as Homo sapiens) [compound 570]	“++” (≥20% = ++)
528 (SVAEGRALMSV; listed as Homo sapiens) [compound 528]	“+++” (≥50 = +++)
488 (FLAEDPKVTL; listed as Homo sapiens) [compound 488]	“+++” (≥50 = +++)
405 (ALYDVFLEV; listed as Homo sapiens) [compound 405]	“++” (≥20% = ++)
194 (ALPLFVITV; listed as Homo sapiens) [compound 194]	“+++” (≥50 = +++)
239 (AAFAGKLLSV; listed as Homo sapiens) [compound 239]	“+++” (≥50 = +++)
134 (YLQELIFSV; listed as Homo sapiens) [compound 134]	“+++” (≥50 = +++)
57 (TLAELQPPVQL; listed as Homo sapiens) [compound 57]	“+++” (≥50 = +++)
284 (ILLSQTTGV; listed as Homo sapiens) [compound 284]	“+++” (≥50 = +++)
493 (GLLGEKTQDLIGV; listed as Homo sapiens) [compound 493]	“+++” (≥50 = +++)
145 (FLATSGTLAGI; listed as Homo sapiens) [compound 145]	“++” (≥20% = ++)
392 (ALLHPQGFEV; listed as Homo sapiens) [compound 392]	“++” (≥20% = ++)
298 (VMITKLVEV; listed as Homo sapiens) [compound 298]	“+++” (≥50 = +++)
477 (ALLPASGQIAL; listed as Homo sapiens) [compound 477]	“+++” (≥50 = +++)
31 (YLAPELFVNV; listed as Homo sapiens) [compound 31]	“++” (≥20% = ++)
68 (SLMELPRGLFL; listed as Homo sapiens) [compound 68]	“++++” (≥75% = ++++)

Substance	Peptide exchange (MHC class I binding score, peptide exchange yield)
603 (FLIEPEHVNTV; listed as Homo sapiens) [compound 603]	“++” (≥20% = ++)
251 (ALYTGFSILV; listed as Homo sapiens) [compound 251]	“++” (≥20% = ++)
388 (SLTIDGIRYV; listed as Homo sapiens) [compound 388]	“+++” (≥50 = +++)
349 (SLTEYLQNV; listed as Homo sapiens) [compound 349]	“++++” (≥75% = ++++)
548 (ALWENPESGEL; listed as Homo sapiens) [compound 548]	“++” (≥20% = ++)
555 (YVLEGLKSV; listed as Homo sapiens) [compound 555]	“+++” (≥50 = +++)
56 (KLYEGIPVLL; listed as Homo sapiens) [compound 56]	“++++” (≥75% = ++++)
463 (SLVESHLSDQLTL; listed as Homo sapiens) [compound 463]	“+++” (≥50 = +++)
498 (KLWTGGLDNTV; listed as Homo sapiens) [compound 498]	“+++” (≥50 = +++)
185 (FLIDDKGYTL; listed as Homo sapiens) [compound 185]	“++” (≥20% = ++)
149 (NLLELFVQL; listed as Homo sapiens) [compound 149]	“+++” (≥50 = +++)
122 (FLLAEDDIYL; listed as Homo sapiens) [compound 122]	“+++” (≥50 = +++)
606 (ALWETEVYI; listed as Homo sapiens) [compound 606]	“+++” (≥50 = +++)
565 (ALQETPTSV; listed as Homo sapiens) [compound 565]	“++” (≥20% = ++)
321 (GLFEDVTQPGILL; listed as Homo sapiens) [compound 321]	“++++” (≥75% = ++++)
130 (FLWNGEDSALL; listed as Homo sapiens) [compound 130]	“+++” (≥50 = +++)
222 (NLIENVQRL; listed as Homo sapiens) [compound 222]	“++” (≥20% = ++)
303 (AILPQLFMV; listed as Homo sapiens) [compound 303]	“++++” (≥75% = ++++)
514 (ILVDWLVQV; listed as Homo sapiens) [compound 514]	“+++” (≥50 = +++)
214 (FLLDLDPLLL; listed as Homo sapiens) [compound 214]	“+++” (≥50 = +++)
151 (KILQQLVTL; listed as Homo sapiens) [compound 151]	“+++” (≥50 = +++)
90 (TLLQIIETV; listed as Homo sapiens) [compound 90]	“+++” (≥50 = +++)
348 (ILLDVKTRL; listed as Homo sapiens) [compound 348]	“++++” (≥75% = ++++)

Substance	Peptide exchange (MHC class I binding score, peptide exchange yield)
330 (QLALKVEGV; listed as Homo sapiens) [compound 330]	“+++” (≥50 = +++)
178 (ALTEIAFVV; listed as Homo sapiens) [compound 178]	“++++” (≥75% = ++++)
345 (VIWKALIHL; listed as Homo sapiens) [compound 345]	“+++” (≥50 = +++)
500 (SLMEDQVLQL; listed as Homo sapiens) [compound 500]	“+++” (≥50 = +++)
507 (KLIDDQDISISL; listed as Homo sapiens) [compound 507]	“+++” (≥50 = +++)
261 (YVLEFLEEI; listed as Homo sapiens) [compound 261]	“++” (≥20% = ++)
306 (ALVNVQIPL; listed as Homo sapiens) [compound 306]	“+++” (≥50 = +++)
189 (ALQRKLPYV; listed as Homo sapiens) [compound 189]	“+++” (≥50 = +++)
120 (ALLGIPLTLV; listed as Homo sapiens) [compound 120]	“+++” (≥50 = +++)
86 (NLIGKIENV; listed as Homo sapiens) [compound 86]	“+++” (≥50 = +++)
234 (ALMEDTGRQML; listed as Homo sapiens) [compound 234]	“++” (≥20% = ++)
364 (LLQNEQFEL; listed as Homo sapiens) [compound 364]	“+++” (≥50 = +++)
307 (ALPVSLPQI; listed as Homo sapiens) [compound 307]	“+++” (≥50 = +++)
7 (SLVGLLLYL; listed as Homo sapiens) [compound 7]	“++++” (≥75% = ++++)
621 (VLMDRLPSLL; listed as Homo sapiens) [compound 621]	“++++” (≥75% = ++++)
584 (ALAEVAAMENV; listed as Homo sapiens) [compound 584]	“+++” (≥50 = +++)
139 (SVMEVNSGIYRV; listed as Homo sapiens) [compound 139]	“+++” (≥50 = +++)
32 (KLDDLTQDLTV; listed as Homo sapiens) [compound 32]	“++” (≥20% = ++)
79 (SLFIGEKAVLL; listed as Homo sapiens) [compound 79]	“+++” (≥50 = +++)
51 (LLPDLEFYV; listed as Homo sapiens) [compound 51]	“++++” (≥75% = ++++)
387 (ALFQATAEV; listed as Homo sapiens) [compound 387]	“++++” (≥75% = ++++)

— US10464978B2, “Peptides and combination of peptides for use in immunotherapy against ovarian cancer and other cancers” (immatics biotechnologies GmbH, priority 2015, dated 2019)
